The target of assay [1] is T1, biotinylated OprF1 synthetic peptide (P. aeruginosa).
T1 construct: also called OprF1-B; OprF1-Biotin
T1 peptide: Biotin-GTYETGNKKVH
In words: pooled monoclonal phages pulled down on biotinylated OprF1 in Bushnell-Haas with 1% Jet-A; unamplified eluate, share of 30 sequenced clones.

Assay [2] deals with T2, OprF outer membrane protein on P. stutzeri cells (P. stutzeri).
T2 construct: whole, on cells; whole bacterial cells were labeled
Put plainly: fluorometry of cells recovered from spiked 1 L Jet A fuel and labeled with 1.5 uM peptide-QD545, at the LOD of 5 x 10^5 CFU.

The target of assay [3] is T3, OprF outer membrane protein on A. venetianus cells (A. venetianus).
T3 construct: whole, on cells; Whole bacterial cells were labeled
The assay is described as above.

Ends that are not written are not given here. * marks the point of attachment. Biotin = O=C1N[C@H]2[C@H](CS[C@H]2CCCCC(=O)*)N1

B1: monoclonal M13 phage displaying OBP11 (PIKTNRK) (peptide)
chain: PIKTNRK
notes: also called OprF-specific bacteriophage; not shown: P3 coat protein of M13 bacteriophage (Ph.D.-7 library)
On to B1, for which, in assay [1], the “% Abundance” value came to 10%.

B2: monoclonal M13 phage displaying OBP6 (NMTNPPP) (peptide)
chain: NMTNPPP
notes: as for B1
For B2, the “% Abundance” value in assay [1] came out at 10%.

B3: monoclonal M13 phage displaying OBP9 (QMLLRLP) (peptide)
chain: QMLLRLP
notes: as for B1
Take B3: in assay [1], the “% Abundance” value turned out to be 3%.

B4: monoclonal M13 phage displaying OBP4 (RRSNSQL) (peptide)
chain: RRSNSQL
notes: as for B1
As for B4, the “% Abundance” value in assay [1] is 33%.

B5: monoclonal M13 phage displaying OBP12 (PKRTPRH) (peptide)
chain: PKRTPRH
notes: as for B1
For the molecule B5, the “% Abundance” value in assay [1] is 3%.

B6: monoclonal M13 phage displaying OBP7 (QITLRST) (peptide)
chain: QITLRST
notes: as for B1
B6: the “% Abundance” value in assay [1] was 10%.

B7: OBP11 peptide-quantum dot conjugate (peptide)
peptide: PIKTNRK
modifications: also: conjugated to quantum dot
notes: The summary and claims describe a C-terminal three-glycine plus cysteine linker to an amine-functionalized quantum dot; also called QD545-OBP11; OBP11-QD545
B7: the “FLUORESCENCE (RFU)” value in assay [2] turned out to be 255 RFU; in assay [3], 292 RFU.

B8: OBP12 peptide-quantum dot conjugate (peptide)
peptide: PKRTPRH
modifications: also: conjugated to quantum dot
notes: The summary and claims describe a C-terminal three-glycine plus cysteine linker to an amine-functionalized quantum dot; also called QD545-OBP12; OBP12-QD545
Consider B8, for which the “FLUORESCENCE (RFU)” value in assay [2] amounted to 12200 RFU; in assay [3] it was 580 RFU.

The values above are taken from US20180224449A1 (GOVERNMENT OF THE UNITED STATES AS REPRESENTED BY THE …, published 2018).
